Here are results for 4 molecules from CN115505045A (MABWELL SHANGHAI BIOSCIENCE CO LTD, dated 2022).

Test [1] deals with T1, LAG-3(NCBI登录号:NP_002277.4)全长, HEK293细胞表面 (human, UniProt P18627 23-525).
T1 construct: whole, on cells; also called HEK293-LAG-3; 细胞表面LAG-3
T1 sequence (looked up): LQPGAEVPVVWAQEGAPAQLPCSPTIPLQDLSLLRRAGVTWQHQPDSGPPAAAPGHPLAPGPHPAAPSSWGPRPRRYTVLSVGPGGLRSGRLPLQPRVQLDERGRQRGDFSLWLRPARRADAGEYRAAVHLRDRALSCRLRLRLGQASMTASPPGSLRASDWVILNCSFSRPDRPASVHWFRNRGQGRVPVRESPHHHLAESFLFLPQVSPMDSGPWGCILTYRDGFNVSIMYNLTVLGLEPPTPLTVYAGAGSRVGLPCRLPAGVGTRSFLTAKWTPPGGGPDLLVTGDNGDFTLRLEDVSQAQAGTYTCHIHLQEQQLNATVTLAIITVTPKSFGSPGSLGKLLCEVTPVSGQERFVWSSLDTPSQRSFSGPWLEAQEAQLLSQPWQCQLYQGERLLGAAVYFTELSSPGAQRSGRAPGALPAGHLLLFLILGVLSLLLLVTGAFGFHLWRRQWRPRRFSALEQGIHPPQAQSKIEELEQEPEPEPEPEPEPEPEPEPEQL
Put plainly: flow cytometry on HEK293 cells transfected with full-length LAG-3. For orientation: In flow cytometry, cells or beads pass a laser one at a time.

Test [2] addresses T2, 人LAG-3胞外区融合蛋白(义翘神州，Cat:16498-H08H) (human, UniProt P18627 23-450).
T2 construct: extracellular domain; also called 人重组蛋白LAG-3; 人LAG-3重组蛋白
T2 sequence (looked up): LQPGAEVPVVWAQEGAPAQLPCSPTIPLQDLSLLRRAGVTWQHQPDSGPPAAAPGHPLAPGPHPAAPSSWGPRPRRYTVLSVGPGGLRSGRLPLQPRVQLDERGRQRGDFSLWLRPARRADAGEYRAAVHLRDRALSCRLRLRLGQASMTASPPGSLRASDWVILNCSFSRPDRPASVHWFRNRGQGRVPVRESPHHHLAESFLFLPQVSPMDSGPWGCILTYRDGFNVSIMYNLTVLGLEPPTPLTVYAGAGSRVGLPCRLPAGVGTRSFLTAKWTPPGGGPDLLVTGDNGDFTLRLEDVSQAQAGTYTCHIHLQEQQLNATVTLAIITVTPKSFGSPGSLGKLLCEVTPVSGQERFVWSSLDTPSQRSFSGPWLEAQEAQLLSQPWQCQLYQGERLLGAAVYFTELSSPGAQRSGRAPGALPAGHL
Kind of test: SPR (Reichert 4SPR), antibody captured by anti-human Fc, antigen in flow.

In test [3] the target is T3, 鼠重组蛋白LAG-3(Cat:53069-M08H，北京义翘神州科技股份有限公司) (mouse, UniProt Q61790 24-442).
T3 construct: also called 小鼠LAG-3; 鼠LAG-3
T3 sequence (looked up): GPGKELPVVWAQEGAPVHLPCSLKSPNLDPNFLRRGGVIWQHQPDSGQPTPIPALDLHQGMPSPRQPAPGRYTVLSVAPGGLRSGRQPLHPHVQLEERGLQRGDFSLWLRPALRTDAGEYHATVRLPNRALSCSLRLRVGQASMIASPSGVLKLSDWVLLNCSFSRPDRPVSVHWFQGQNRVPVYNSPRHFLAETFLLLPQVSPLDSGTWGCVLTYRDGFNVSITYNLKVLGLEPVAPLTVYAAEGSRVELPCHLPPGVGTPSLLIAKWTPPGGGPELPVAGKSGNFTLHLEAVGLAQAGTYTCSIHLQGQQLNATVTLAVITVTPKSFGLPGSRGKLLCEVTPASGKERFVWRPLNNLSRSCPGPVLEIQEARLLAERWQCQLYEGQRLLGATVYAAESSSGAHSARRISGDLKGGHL
Put plainly: ELISA, antigen coated at 1 μg/mL.

For test [4], the target named is T4, 鼠PD-L1(Cat:50010-M08H，北京义翘神州科技股份有限公司) (mouse, UniProt Q9EP73 19-238).
T4 construct: also called 小鼠PD-L1
Put plainly: ELISA, antigen coated at 1 μg/mL. In general terms: An ELISA detects its analyte on a solid surface through an enzyme-linked reagent.

For the next test, the target named is T5, 肿瘤细胞MBA-MD-231细胞表面的PD-L1 (UniProt Q9NZQ7 19-290, limits assumed).
T5 construct: whole, on cells; also called 细胞表面PD-L1
Kind of test: flow cytometry on MBA-MD-231 tumour cells.

The target of test [5] is T6, 人PD-L1 on CHO-PD-L1-CD3L细胞 (human, UniProt Q9NZQ7 19-290).
T6 construct: whole, on cells; also called 高表达人PD-L1的CHO细胞
Kind of test: flow cytometry, double-positive cells (CFSE-labelled CHO-PD-L1-CD3L with HEK-293-LAG3-OFP).

Test [6] has as its target T7, LAG-3-OFP(NCBI登录号:NP_002277.4) on HEK293细胞 (human, UniProt P18627 23-525).
T7 construct: whole, on cells; also called HEK-293-LAG3-OFP; HEK293-LAG-3
T7 sequence (looked up): T1 sequence (looked up)
The description is as above.

T5 sequence (Q9NZQ7 19-290 limits assumed): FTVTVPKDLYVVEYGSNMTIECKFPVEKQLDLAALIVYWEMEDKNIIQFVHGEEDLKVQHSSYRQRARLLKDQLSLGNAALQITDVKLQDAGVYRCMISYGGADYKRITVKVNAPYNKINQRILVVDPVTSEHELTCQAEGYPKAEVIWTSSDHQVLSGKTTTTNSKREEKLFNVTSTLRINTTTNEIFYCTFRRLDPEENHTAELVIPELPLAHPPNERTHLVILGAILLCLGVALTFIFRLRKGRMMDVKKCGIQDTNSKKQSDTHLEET
T4 sequence (Q9EP73 19-238 limits assumed, stated change not applied): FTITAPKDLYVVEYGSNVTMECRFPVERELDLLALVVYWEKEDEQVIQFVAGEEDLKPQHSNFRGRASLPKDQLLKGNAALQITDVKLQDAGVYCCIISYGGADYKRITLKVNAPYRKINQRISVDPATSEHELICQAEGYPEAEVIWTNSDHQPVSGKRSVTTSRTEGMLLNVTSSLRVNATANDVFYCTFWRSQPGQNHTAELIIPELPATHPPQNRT
T6 sequence (Q9NZQ7 19-290): as the sequence (Q9NZQ7 19-290 limits assumed) above

B1: 人源化抗体hz7F10 (antibody, human IgG1, kappa, L234A L235A, V domains shown)
VH: EVQLVQSGAEVKKPGASVKVSCKASGVNIKDDYMHWVRQAPGQGLEWIGRIDPEDVETKYDPKFQGRVTITADTSTSTAYMELSSLRSEDTAVYYCARSFYSNYVNYFDQWGQGTLVTVSS
VL: DIQMTQSPSSLSASVGDRVTITCKASENVGTYVSWFQQKPGKAPKLLIYGASNRYTGVPSRFSGSGSGTDFTLTISSLQPEDFATYYCGQSYSYPYTFGQGTKLEIKR
notes: Humanised from mouse antibody 7F10; also called 裸抗体hz7F10; 抗LAG-3抗体hz7F10
With B1, the binding result in test [1] and in test [2] was “binds” each time.

B2: 对照抗体BMS-986016 (antibody, human IgG4 S228P, kappa, V domains shown)
VH: QVQLQQWGAGLLKPSETLSLTCAVYGGSFSDYYWNWIRQPPGKGLEWIGEINHRGSTNSNPSLKSRVTLSLDTSKNQFSLKLRSVTAADTAVYYCAFGYSDYEYNWFDPWGQGTLVTVSS
VL: EIVLTQSPATLSLSPGERATLSCRASQSISSYLAWYQQKPGQAPRLLIYDASNRATGIPARFSGSGSGTDFTLTISSLEPEDFAVYYCQQRSNWPLTFGQGTNLEIKR
As to B2, the binding result in test [3] was “no binding (tested: 1μg/mL)”.

B3: hz7F10-hzB6 (bispecific antibody, human IgG1, kappa, L234A L235A)
heavy: not shown
light: DIQMTQSPSSLSASVGDRVTITCKASENVGTYVSWFQQKPGKAPKLLIYGASNRYTGVPSRFSGSGSGTDFTLTISSLQPEDFATYYCGQSYSYPYTFGQGTKLEIKRTVAAPSVFIFPPSDEQLKSGTASVVCLLNNFYPREAKVQWKVDNALQSGNSQESVTEQDSKDSTYSLSSTLTLSKADYEKHKVYACEVTHQGLSSPVTKSFNRGEC
notes: Expressed transiently in HEK293 cells; also called 抗人LAG-3/PD-L1双特异抗体; LAG-3/PD-L1双特异抗体
On to B3, for which the binding result in test [3] is given as “no binding (tested: 1μg/mL)”; in test [4], “no binding (tested: 1μg/mL)”; in the test with 肿瘤细胞MBA-MD-231细胞表面的PD-L1, “binds”; in test [1] it was “binds”; in test [2], “binds”; in test [5], “binds”. Further, the binding result in test [6] is “binds”.

B4: hz7F10-hzF2 (bispecific antibody, human IgG1, kappa, L234A L235A)
heavy: not shown
light: B3 light
notes: as for B3
Consider B4, for which the binding result is listed as “no binding (tested: 1μg/mL)” in test [3]; “no binding (tested: 1μg/mL)” in test [4]; “binds” with 肿瘤细胞MBA-MD-231细胞表面的PD-L1; “binds” in test [1]; “binds” in test [2].
